The values below come from paper PMC9143278.

B1: muIL-1β (commercial recombinant murine IL-1β) (ligand)
chain: VPIRQLHYRLRDEQQKSLVLSDPYELKALHLNGQNINQQVIFSMSFVQGEPSNDKIPVALGLKGKNLYLSCVMKDGTPTLQLESVDPKQYPKKKMEKRFVFNKIEVKSKVEFESAEFPNWYISTSQAEHKPVFLGNNSGQDIIDFTMESVSS

The assay addresses human and murine IL-1R1 on HEK-Blue IL-1R cells (human and murine).
On to IL-1β(H30G)-Tag (ligand), for which the SEAP reporter (620 nm) in HEK-Blue IL-1R cells after overnight incubation; EC50 of a 3-fold dilution series from 100 ng/mL was 2.4. The same measure, in the same setting: with IL-1β(R11G)-Tag (ligand) the figure was 2.7; with IL-1β(N32G)-Tag (ligand), 0.89; with IL-1β(Q15G)-Tag (ligand), 5.8. On to “IL-1β-Tag (His-TEV-muIL-1β-Tag, wild type) (from UniProt P10749 118-269) (ligand)”, for which the SEAP reporter (620 nm) in HEK-Blue IL-1R cells after overnight incubation; EC50 of a 3-fold dilution series from 100 ng/mL stood at 0.75. In the case of “huIL-1β (commercial recombinant human IL-1β) (from UniProt P01584 117-269) (ligand)”, the SEAP reporter (620 nm) in HEK-Blue IL-1R cells after overnight incubation; EC50, positive control was 0.25. In the case of B1, the SEAP reporter (620 nm) in HEK-Blue IL-1R cells after overnight incubation; EC50, positive control came out at 0.21.
